According to publication PMC12289762, “A prevalent MOCS2 variant in the Roma population is associated with a novel mild form of molybdenum cofactor deficiency” (European Journal of Pediatrics, 2025):

T1: MOCS2B p.Leu19Phe variant (human, UniProt O96007 1-188, p.Leu19Phe)
T1 construct: MOCS2B, large subunit of molybdopterin (MPT) synthase, human, patient variant c.57A>T (NM_004531.5; p.Leu19Phe), rs776441627; Variant found in patients (natural variant); Cloned into pET15b; also called MOCS2B L19F; MOCS2B Leu19Phe; source: Escherichia coli BL21 (pET15b), purified (ammonium sulfate precipitation, size exclusion chromatography on Superdex 200)
T1 sequence (looked up): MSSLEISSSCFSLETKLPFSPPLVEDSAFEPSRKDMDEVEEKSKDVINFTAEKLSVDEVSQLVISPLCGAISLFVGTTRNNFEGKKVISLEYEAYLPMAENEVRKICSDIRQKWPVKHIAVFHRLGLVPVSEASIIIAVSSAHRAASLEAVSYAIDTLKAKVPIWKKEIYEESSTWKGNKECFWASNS

T2: MOCS2B wild-type (large subunit of MPT synthase) (human, UniProt O96007 1-188)
T2 construct: MOCS2B, large subunit of molybdopterin (MPT) synthase, human; encoded by MOCS2 transcript variant 3 (NM_004531.5); Cloned into pET15b, a vector that can add an N-terminal His tag; also called MOCS2B WT; WT MOCS2B; source: Escherichia coli BL21 (pET15b), purified (ammonium sulfate precipitation, size exclusion chromatography on Superdex 200)
T2 sequence (looked up): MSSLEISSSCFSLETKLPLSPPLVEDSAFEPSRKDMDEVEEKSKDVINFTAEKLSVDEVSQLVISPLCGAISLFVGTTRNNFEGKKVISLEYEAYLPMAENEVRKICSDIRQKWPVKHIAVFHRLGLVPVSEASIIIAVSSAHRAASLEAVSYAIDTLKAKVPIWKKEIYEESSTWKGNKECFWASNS


Key:
[1] = biological target: T1, MOCS2B p.Leu19Phe variant; assay: ITC; VP-ITC; 20-50 uM MOCS2B in the sample cell (1.5 mL), 200-500 uM MOCS2A in the syringe; 10 mM Tris-HCl, 250 mM NaCl, pH 8.0; n = 3 experiments; conditions: both partners purified
[2] = biological target: T2, MOCS2B wild-type (large subunit of MPT …); assay: as above; conditions: both partners purified
[3] = biological target: T1, MOCS2B p.Leu19Phe variant; assay: cell-based or functional assay

Row | Binder | Kd [1] [nM] | Kd [2] [nM] | stoichiometry N [2] | in vitro MPT synthesis activity (500 pmol cPMP, 200 pmol MOCS2B, 0-500 pmol MOCS2A; HPLC Form A method), relative to WT MOCS2A/B [3]
1 | MOCS2A wild-type (small subunit of MPT synthase) (natural protein, human, UniProt O96033 1-88, looked up, thiocarboxylated C-terminal tail, MOCS2A, small subunit of molybdopterin (MPT) synthase, human; encoded by MOCS2 transcript variant 1 (NM_176806.4); also called MOCS2A WT; WT MOCS2A) MVPLCQVEVLYFAKSAEITGVRSETISVPQEIKALQLWKEIETRHPGLADVRNQIIFAVRQEYVELGDQLLVLQPGDEIAVIPPISGG | 114 ± 16 | 359 ± 47 | 1.15 ± 0.2 | –
2 | MOCS2A p.Ile82Phe variant (natural protein, human, UniProt O96033 1-88, looked up, thiocarboxylated C-terminal tail, MOCS2A, small subunit of molybdopterin (MPT) synthase, human, patient variant c.244A>T (NM_176806.4; p.Ile82Phe), rs776441627; Variant found in patients (natural variant); also called MOCS2A I82F; MOCS2 p.Ile82Phe) MVPLCQVEVLYFAKSAEITGVRSETISVPQEIKALQLWKEIETRHPGLADVRNQIIFAVRQEYVELGDQLLVLQPGDEIAVFPPISGG | 7400 ± 2100 | 2800 ± 300 | – | ~20 % of WT
